Laboratory results published in patent publication US20160201097A1, “Materials and Methods of Producing 7-Carbon Monomers” (INVISTA North America S.á.r.l., priority 2014, published 2016).

Tests used:
[1] = carboxylate reductase activity: pimelate to pimelate semialdehyde (NADPH consumption, A340); format: biochemical; details: purified enzyme enhanced by sfp gene product, 2 mM pimelate, pH 7.5, room temperature, 20 min; against the empty vector control (FIG. 8)
Method: A nucleotide sequence encoding a HIS-tag was added to the nucleic acid sequences from Segniliparus rugosus and Segniliparus rotundus that encode the carboxylate reductases of SEQ ID NOs: 4 (EFV11917.1) and 6 (ADG98140.1), respectively (see FIG. 6), such that N-terminal HIS tagged carboxylate reductases could be produced. Each of the modified genes was cloned into a pET Duet expression vector along with a sfp gene encoding a HIS-tagged phosphopantetheine transferase from Bacillus subtilis, both under the T7 promoter. Each expression vector was transformed into a BL21[DE3] E. coli host and the resulting recombinant E. coli strains were cultivated at 37° C. in a 250 mL shake flask culture containing 50 mL LB media and antibiotic selection pressure, with shaking at 230 rpm. Each culture was induced overnight at 37° C. using an auto-induction media.
The pellet from each induced shake flask culture was harvested via centrifugation. Each pellet was resuspended and lysed via sonication, and the cell debris was separated from the supernatant via centrifugation. […]
Enzyme activity assays (i.e., from pimelate to pimelate semialdehyde) were performed in triplicate in a buffer composed of a final concentration of 50 mM HEPES buffer (pH=7.5), 2 mM pimelate, 10 mM MgCl2, 1 mM ATP and 1 mM NADPH. […] The consumption of NADPH was monitored by absorbance at 340 nm. […]

[2] = carboxylate reductase activity: N7-acetyl-7-aminoheptanoate to N7-acetyl-7-aminoheptanal (NADPH consumption, A340); format: biochemical; details: purified enzyme enhanced by sfp gene product, 2 mM N7-acetyl-7-aminoheptanoate, pH 7.5, room temperature, 20 min; against the empty vector control (FIG. 10)
Method: The activity of each of the N-terminal His-tagged carboxylate reductases of SEQ ID NOs: 3, 5, and 6 (see Examples 2 and 3, and FIG. 6) for converting N7-acetyl-7-aminoheptanoate to N7-acetyl-7-aminoheptanal was assayed in triplicate in a buffer composed of a final concentration of 50 mM HEPES buffer (pH=7.5), 2 mM N7-acetyl-7-aminoheptanoate, 10 mM MgCl2, 1 mM ATP, and 1 mM NADPH. The assays were initiated by adding purified carboxylate reductase and phosphopantetheine transferase or the empty vector control to the assay buffer containing the N7-acetyl-7-aminoheptanoate then incubated at room temperature for 20 min. The consumption of NADPH was monitored by absorbance at 340 nm.

B1: SEQ ID NO: 4: Segniliparus rugosus carboxylate reductase, N-terminal HIS tagged (protein, listed as Segniliparus rugosus)
chain: MGDGEERAKRFFQRIGELSATDPQFAAAAPDPAVVEAVSDPSLSFTRYLDTLMRGYAERPALAHRVGAGYETISYGELWARVGAIAAAWQADGLAPGDFVATVGFTSPDYVAVDLAAARSGLVSVPLQAGASLAQLVGILEETEPKVLAASASSLEGAVACALAAPSVQRLVVFDLRGPDASESAADERRGALADAEEQLARAGRAVVVETLADLAARGEALPEAPLFEPAEGEDPLALLIYTSGSTGAPKGAMYSQRLVSQLWGRTPVVPGMPNISLHYMPLSHSYGRAVLAGALSAGGTAHFTANSDLSTLFEDIALARPTFLALVPRVCEMLFQESQRGQDVAELRERVLGGRLLVAVCGSAPLSPEMRAFMEEVLGFPLLDGYGSTEALGVMRNGIIQRPPVIDYKLVDVPELGYRTTDKPYPRGELCIRSTSLISGYYKRPEITAEVFDAQGYYKTGDVMAEIAPDHLVYVDRSKNVLKLSQGEFVAVAKLEAAYGTSPYVKQIFVYGNSERSFLLAVVVPNAEVLGARDQEEAKPLIAASLQKIAKEAGLQSYEVPRDFLIETEPFTTQNGLLSEVGKLLRPKLKARYGEALEARYDEIAHGQADELRALRDGAGQRPVVETVVRAAVAISGSEGAEVGPEANFADLGGDSLSALSLANLLHDVFEVEVPVRIIIGPTASLAGIAKHIEAERAGASAPTAASVHGAGATRIRASELTLEKFLPEDLLAAAKGLPAADQVRTVLLTGANGWLGRFLALEQLERLARSGQDGGKLICLVRGKDAAAARRRIEETLGTDPALAARFAELAEGRLEVVPGDVGEPKFGLDDAAWDRLAEEVDVIVHPAALVNHVLPYHQLFGPNVVGTAEIIRLAITAKRKPVTYLSTVAVAAGVEPSSFEEDGDIRAVVPERPLGDGYANGYGNSKWAGEVLLREAHELVGLPVAVFRSDMILAHTRYTGQLNVPDQFTRLVLSLLATGIAPKSFYQQGAAGERQRAHYDGIPVDFTAEAITTLGAEPSWFDGGAGFRSFDVFNPHHDGVGLDEFVDWLIEAGHPISRIDDHKEWFARFETAVRGLPEAQRQHSLLPLLRAYSFPHPPVDGSVYPTGKFQGAVKAAQVGSDHDVPHLGKALIVKYADDLKALGLL
modifications: N-terminal His tag
notes: Segniliparus rugosus carboxylate reductase, N-terminal HIS tagged
With B1 the “acceptance of pimelate as substrate (NADPH consumption)” value [1] was “accepted pimelate as substrate”.

B2: SEQ ID NO: 5: Mycobacterium massiliense carboxylate reductase, N-terminal HIS tagged (protein)
chain: MTNETNPQQEQLSRRIESLRESDPQFRAAQPDPAVAEQVLRPGLHLSEAIAALMTGYAERPALGERARELVIDQDGRTTLRLLPRFDTTTYGELWSRTTSVAAAWHHDATHPVKAGDLVATLGFTSIDYTVLDLAIMILGGVAVPLQTSAPASQWTTILAEAEPNTLAVSIELIGAAMESVRATPSIKQVVVFDYTPEVDDQREAFEAASTQLAGTGIALETLDAVIARGAALPAAPLYAPSAGDDPLALLIYTSGSTGAPKGAMHSENIVRRWWIREDVMAGTENLPMIGLNFMPMSHIMGRGTLTSTLSTGGTGYFAASSDMSTLFEDMELIRPTALALVPRVCDMVFQRFQTEVDRRLASGDTASAEAVAAEVKADIRDNLFGGRVSAVMVGSAPLSEELGEFIESCFELNLTDGYGSTEAGMVFRDGIVQRPPVIDYKLVDVPELGYFSTDKPHPRGELLLKTDGMFLGYYKRPEVTASVFDADGFYMTGDIVAELAHDNIEIIDRRNNVLKLSQGEFVAVATLEAEYANSPVVHQIYVYGSSERSYLLAVVVPTPEAVAAAKGDAAALKTTIADSLQDIAKEIQLQSYEVPRDFIIEPQPFTQGNGLLTGIAKLARPNLKAHYGPRLEQMYAEIAEQQAAELRALHGVDPDKPALETVLKAAQALLGVSSAELAADAHFTDLGGDSLSALSFSDLLRDIFAVEVPVGVIVSAANDLGGVAKFVDEQRHSGGTRPTAETVHGAGHTEIRAADLTLDKFIDEATLHAAPSLPKAAGIPHTVLLTGSNGYLGHYLALEWLERLDKTDGKLIVIVRGKNAEAAYGRLEEAFDTGDTELLAHFRSLADKHLEVLAGDIGDPNLGLDADTWQRLADTVDVIVHPAALVNHVLPYNQLFGPNVVGTAEIIKLAITTKIKPVTYLSTVAVAAYVDPTTFDEESDIRLISAVRPIDDGYANGYGNAKWAGEVLLREAHDLCGLPVAVFRSDMILAHSRYTGQLNVPDQFTRLILSLIATGIAPGSFYQAQTTGERPLAHYDGLPGDFTAEAITTLGTQVPEGSEGFVTYDCVNPHADGISLDNFVDWLIEAGYPIARIDNYTEWFTRFDTAIRGLSEKQKQHSLLPLLHAFEQPSAAENHGVVPAKRFQHAVQAAGIGPVGQDGTTDIPHLSRRLIVKYAKDLEQLGLL
modifications: N-terminal His tag; Mycobacterium massiliense
notes: Mycobacterium massiliense carboxylate reductase, N-terminal HIS tagged
In the case of B2, the “acceptance of N7-acetyl-7-aminoheptanoate as substrate (NADPH consumption)” value [2] is reported as “accepted N7-acetyl-7-aminoheptanoate as substrate”.
